{"source": "patent US6548282B2", "about": "“Phytase and gene encoding said phytase” (priority 1996, dated 2003)", "molecules": {"B1": {"name": "novel phytase derived from Aspergillus niger SK57, SEQ ID NO:1 (Aspergillus niger CBS 513.88) (protein)", "chain": "SRNQSTCDTVDQGYQCFSETSHLWGQYAPFFSLANKSAISPDVPAGCHVTFAQVLSRHGARYPTDSKGKKYSALIEEIQQNATTFEGKYAFLKTYNYSLGADDLTPFGEQELVNSGVKFYQRYESLTRNIVPFIRSSGSSRVIASGNKFIEGFQSTKLKDPRAQPGQSSPKIDVVISEASTSNNTLDPGTCTVFEDSELADDIEANFTATFVPSIRQRLENDLSGVSLTDTEVTYLMDMCSFDTISTSTVDTKLSPFCDLFTHEEWINYDYLQSLNKYYGHGAGNPLGPTQGVGYANELIARLTHSPVHDDTSSNHTLDSNPATFPLNSTLYADFSHDNGIISILFALGLYNGTKPLSSTTAENITQTDGFSSAWTVPFASRMYVEMMQCQSEQEPLVRVLVNDRVVPLHGCPVDALGRCTRDSFVKGLSFARSGGDWGECFA"}, "B2": {"name": "novel phytase (SK57 gene, pANPHY1) derived from Aspergillus niger MH-PA1 (Aspergillus niger CBS 513.88) (protein)", "chain": "B1 chain", "notes": "secreted, mature, purified"}, "B3": {"name": "novel phytase (SK57 gene, pANPHY1) derived from Aspergillus nidulans M-PA1 (Aspergillus niger CBS 513.88) (protein)", "chain": "B1 chain", "notes": "secreted, mature, purified, glycosylated"}, "B4": {"name": "novel phytase (SK57 gene, pANPHY1) derived from Aspergillus oryzae MO-PG3 (Aspergillus niger CBS 513.88) (protein)", "chain": "B1 chain", "notes": "as for B3"}, "B5": {"name": "novel phytase from Aspergillus niger SK57: Phytase purified from wheat bran culture of Aspergillus niger SK57 (FERM BP-5473); amino acid sequence SEQ ID NO:1 (protein)", "chain": "B1 chain"}}, "key": {"[1]": {"test_system": "wheat bran-derived phytase", "details": "Agr. Biol. Chem., 26, 794-803 (1962); read-out: Michaelis constant (Km); cited from earlier work"}, "[2]": {"test_system": "Escherichia coli-derived phytase", "details": "read-out: Michaelis constant (Km); cited from earlier work"}, "[3]": {"test_system": "Bacillus natto-derived phytase", "details": "read-out: Michaelis constant (Km); cited from earlier work"}, "[4]": {"test_system": "Aspergillus oryzae-derived phytase", "details": "read-out: Michaelis constant (Km); cited from earlier work"}, "[5]": {"test_system": "rice bran-derived phytase", "details": "Agr. Biol. Chem., 53, 1475-1483; read-out: Michaelis constant (Km); cited from earlier work"}, "[6]": {"test_system": "maize (Zea mays)-derived phytase", "details": "read-out: Michaelis constant (Km); cited from earlier work"}, "[7]": {"test_system": "Aspergillus ficcum-derived phytase", "details": "WO 91/05053; read-out: Michaelis constant (Km); cited from earlier work"}, "[8]": {"test_system": "Bacillus subtilis-derived phytase", "details": "read-out: Michaelis constant (Km); cited from earlier work"}, "[9]": {"substrate": "O=P(O)(O)O[C@H]1[C@H](OP(=O)(O)O)[C@@H](OP(=O)(O)O)[C@H](OP(=O)(O)O)[C@@H](OP(=O)(O)O)[C@H]1OP(=O)(O)O", "experiment": "Km of novel phytase from Aspergillus niger SK57 (standard assay, Lineweaver-Burk plot)", "assay_type": "biochemical", "details": "other: sodium phytate 0.00625 to 1.25 mM, pH 5.5, 37° C.", "description": "(§1) 0.5 ml of 0.2 M acetate buffer, pH 5.5 (sodium acetate) containing 2.5 mM sodium phytate (Sigma) is maintained at 37° C. for 5 minutes, and 0.5 ml of an enzyme solution is added to initiate the reaction. After maintained at 37° C. for 10 minutes, 2 ml of a stop solution of enzyme reaction (i.e., mixture of 1:1:2 10 mM ammonium molybdate, 5 N sulfuric acid and acetone) is added to stop the reaction, and 0.1 ml of 1 M citric acid is further added and mixed. The absorbance of this solution is determined at 380 nm on a spectrophotometer (Hitachi U-2000). One unit of phytase activity is defined as the amount of enzyme allowing to release 1 μmol inorganic phosphorus for 1 minute at pH 5.5 at 37° C.\n(§2) The Km value of the novel phytase can be determined by the Lineweaver-Burk plot in which the activity of the novel phytase, as determined by the standard assay, is plotted at varying concentrations of the substrate.\n(§3) (1) Km value: The activity was determined according to the standard assay where the substrate concentration was varied in the range of 0.00625 to 1.25 mM. The results were graphted out in Lineweave-Burk plot so that Km values were determined."}, "[10]": {"substrate": "O=P(O)(O)O[C@H]1[C@H](OP(=O)(O)O)[C@@H](OP(=O)(O)O)[C@H](OP(=O)(O)O)[C@@H](OP(=O)(O)O)[C@H]1OP(=O)(O)O", "experiment": "Km of novel phytase from transformant Aspergillus niger MH-PA1 (standard assay, Lineweaver-Burk plot)", "assay_type": "biochemical", "details": "other: sodium phytate 0.00625 to 1.25 mM, pH 5.5, 37° C.", "description": "as §1, §2, §3"}, "[11]": {"substrate": "O=P(O)(O)O[C@H]1[C@H](OP(=O)(O)O)[C@@H](OP(=O)(O)O)[C@H](OP(=O)(O)O)[C@@H](OP(=O)(O)O)[C@H]1OP(=O)(O)O", "experiment": "Km of novel phytase from transformant Aspergillus nidulans M-PA1 (standard assay, Lineweaver-Burk plot)", "assay_type": "biochemical", "details": "other: sodium phytate 0.00625 to 1.25 mM, pH 5.5, 37° C.", "description": "as §1, §2, §3"}, "[12]": {"substrate": "O=P(O)(O)O[C@H]1[C@H](OP(=O)(O)O)[C@@H](OP(=O)(O)O)[C@H](OP(=O)(O)O)[C@@H](OP(=O)(O)O)[C@H]1OP(=O)(O)O", "experiment": "Km of novel phytase from transformant Aspergillus oryzae MO-PG3 (standard assay, Lineweaver-Burk plot)", "assay_type": "biochemical", "details": "other: sodium phytate 0.00625 to 1.25 mM, pH 5.5, 37° C.", "description": "as §1, §2, §3"}, "[13]": {"experiment": "Substrate specificity, standard assay", "assay_type": "biochemical", "description": "as §1\n(7) Substrate specificity: The activity was determined by the standard assay method wherein the concentration of substrates was adjusted at 1 mM and 10 mM."}, "[14]": {"experiment": "Specific activity of purified phytase, standard assay", "assay_type": "biochemical", "details": "after purification; pH 5.5, 37° C.", "description": "as §1\nTen g of the crude phytase powder obtained in Example 6-2 was dissolved in 50 ml of acetate buffer A [50 mM acetic acid/50 mM sodium acetate (pH 5.5)] and then desalted through an Ultrafilter (cut off molecular weight 10,000; Sartrius). The resulting enzyme solution was applied to a DIAION HPA-75 (Mitsubishi Corporation) column (5.6 cm×30 cm) previously equilibrated with acetate buffer A. After washed with acetate buffer A, novel phytase was eluted with acetate buffer B [50 mM acetic acid/50 mM sodium acetate (pH 4.8)] containing 0.3 M NaCl. […]"}}}
{"molecule": "O=P(O)(O)O[C@H]1[C@H](OP(=O)(O)O)[C@@H](OP(=O)(O)O)[C@H](OP(=O)(O)O)[C@@H](OP(=O)(O)O)[C@H]1OP(=O)(O)O", "note": "[phytic acid]", "values": [{"measurement": "Km", "setting": "[1]", "value": 570, "unit": "µM"}, {"measurement": "Km", "setting": "[2]", "value": 130, "unit": "µM"}, {"measurement": "Km", "setting": "[3]", "value": 500, "unit": "µM"}, {"measurement": "Km", "setting": "[4]", "value": 330, "unit": "µM"}, {"measurement": "Km", "setting": "[5]", "value": 170, "unit": "µM"}, {"measurement": "Km", "setting": "[6]", "value": 117, "unit": "µM"}, {"measurement": "Km", "setting": "[7]", "value": 250, "unit": "µM"}, {"measurement": "Km", "setting": "[8]", "value": 150, "unit": "µM"}]}
{"molecule": "B1", "values": [{"measurement": "Km", "setting": "[9]", "value": 13, "unit": "µM"}]}
{"molecule": "B2", "values": [{"measurement": "Km", "setting": "[10]", "value": 30, "unit": "µM"}]}
{"molecule": "B3", "values": [{"measurement": "Km", "setting": "[11]", "value": 20, "unit": "µM"}]}
{"molecule": "B4", "values": [{"measurement": "Km", "setting": "[12]", "value": 28, "unit": "µM"}]}
{"molecule": "B5", "values": [{"measurement": "Relative activity (100%)", "setting": "[13]; substrate ATP 1 mM", "value": 1.6, "unit": "%"}, {"measurement": "Relative activity (100%)", "setting": "[13]; substrate ATP 10 mM", "value": 1.2, "unit": "%"}, {"measurement": "Relative activity (100%)", "setting": "[13]; substrate D-glucose-6-phosphate 1 mM", "value": 0.45, "unit": "%"}, {"measurement": "Relative activity (100%)", "setting": "[13]; substrate D-glucose-6-phosphate 10 mM", "value": 4.2, "unit": "%"}, {"measurement": "Relative activity (100%)", "setting": "[13]; substrate D-myo-inositol 1,4,5-tris-phosphate 1 mM", "value": 0.71, "unit": "%"}, {"measurement": "Relative activity (100%)", "setting": "[13]; substrate D-myo-inositol 1,4,5-tris-phosphate 10 mM", "value": 5.8, "unit": "%"}, {"measurement": "Relative activity (100%)", "setting": "[13]; substrate fructose-6-phosphate 1 mM", "value": 0.15, "unit": "%"}, {"measurement": "Relative activity (100%)", "setting": "[13]; substrate fructose-6-phosphate 10 mM", "value": 0.93, "unit": "%"}, {"measurement": "Relative activity (100%)", "setting": "[13]; substrate glycerophosphoric acid 1 mM", "value": 0.11, "unit": "%"}, {"measurement": "Relative activity (100%)", "setting": "[13]; substrate glycerophosphoric acid 10 mM", "value": 0.96, "unit": "%"}, {"measurement": "Relative activity (100%)", "setting": "[13]; substrate p-nitrophenyl phosphate 1 mM", "value": 1.9, "unit": "%"}, {"measurement": "Relative activity (100%)", "setting": "[13]; substrate p-nitrophenyl phosphate 10 mM", "value": 10, "unit": "%"}, {"measurement": "Relative activity (100%)", "setting": "[13]; substrate phytic acid 1 mM", "value": 100, "unit": "%"}, {"measurement": "substrate specificity (in words)", "setting": "[13]; substrates of Table 1 at 1 mM and 10 mM", "value": "acted with low specificity on the substrates shown in Table 1, but it had less activity on substrates other than phytic acid"}, {"measurement": "specific activity", "setting": "[14]", "value": 158, "unit": "U/mg"}]}
